Experimental data: the supplement of paper PMC9876800

System: peptide library, one residue held at a place counted from the S/T acceptor
Assay: relative phosphorylation of the sub-library (ratio to the mean residue at this position); higher = residue favoured
Procedure, shortened: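 Each biotinylated degenerate peptide sub-library fixed one residue at one position around a central Ser/Thr and was incubated with a purified recombinant kinase, a human or orthologue construct, in 384-well plates. The 90 min reactions, under kinase-specific conditions, contained 50 μM peptide and 50 μM ATP spiked with γ-32P-ATP. Phosphorylation was read by phosphorimaging spots on streptavidin membranes and quantifying them by densitometry. Relative sub-library phosphorylation expresses each value as a ratio to the mean residue at that position.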

LATS2, construct: aa553-end, human, sequence (Q9NRM7 553-1088, looked up): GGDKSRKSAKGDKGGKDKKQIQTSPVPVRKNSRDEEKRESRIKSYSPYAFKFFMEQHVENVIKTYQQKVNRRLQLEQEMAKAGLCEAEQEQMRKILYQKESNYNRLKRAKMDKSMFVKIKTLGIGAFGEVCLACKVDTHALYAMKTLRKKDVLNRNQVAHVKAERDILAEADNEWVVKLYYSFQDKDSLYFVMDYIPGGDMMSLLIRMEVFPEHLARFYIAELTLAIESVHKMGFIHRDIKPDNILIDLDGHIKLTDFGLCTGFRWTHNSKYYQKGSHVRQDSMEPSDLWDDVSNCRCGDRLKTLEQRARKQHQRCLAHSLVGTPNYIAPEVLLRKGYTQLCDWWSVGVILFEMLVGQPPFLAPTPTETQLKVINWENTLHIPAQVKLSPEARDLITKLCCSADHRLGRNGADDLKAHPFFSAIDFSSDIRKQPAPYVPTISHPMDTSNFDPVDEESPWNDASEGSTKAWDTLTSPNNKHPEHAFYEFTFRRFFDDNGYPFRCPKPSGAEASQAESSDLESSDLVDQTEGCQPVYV
MAP3K11, construct: aa99-398, human, sequence (Q16584 99-398, looked up): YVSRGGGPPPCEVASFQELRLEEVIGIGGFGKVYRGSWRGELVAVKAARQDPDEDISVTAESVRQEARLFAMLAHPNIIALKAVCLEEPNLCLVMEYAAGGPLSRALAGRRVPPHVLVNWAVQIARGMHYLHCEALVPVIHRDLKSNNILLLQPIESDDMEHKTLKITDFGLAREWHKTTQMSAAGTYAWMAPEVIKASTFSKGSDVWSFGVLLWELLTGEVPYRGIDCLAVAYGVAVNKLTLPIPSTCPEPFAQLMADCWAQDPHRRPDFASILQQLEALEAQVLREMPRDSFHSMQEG
MAP3K7, construct: aa1-303, human, sequence (O43318 1-303, looked up): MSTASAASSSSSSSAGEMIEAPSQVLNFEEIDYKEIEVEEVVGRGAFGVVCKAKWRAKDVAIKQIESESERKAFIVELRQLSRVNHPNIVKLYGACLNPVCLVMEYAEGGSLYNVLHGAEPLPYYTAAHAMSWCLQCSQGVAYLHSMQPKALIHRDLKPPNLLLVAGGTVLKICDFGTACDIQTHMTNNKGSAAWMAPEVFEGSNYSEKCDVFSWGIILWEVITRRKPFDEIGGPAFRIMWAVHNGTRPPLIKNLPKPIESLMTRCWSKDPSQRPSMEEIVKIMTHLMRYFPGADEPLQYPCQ

LATS2, construct: aa553-end, human (from UniProt Q9NRM7)
relative phosphorylation
Conditions	at +1	at +2	at +3	at +4	at -1	at -2	at -3	at -4	at -5
A fixed	0.577	1.11	0.859	0.703	0.693	0.789	0.766	1.15	0.615
D fixed	0.89	2.94	1.47	1.4	0.702	0.901	0.465	0.649	0.475
E fixed	0.953	0.932	1.36	1.49	0.516	1.27	0.352	0.739	0.308
F fixed	1.29	0.699	0.846	0.865	0.483	0.764	0.415	0.981	0.672
G fixed	0.876	1.53	1.54	1.27	0.994	1.13	0.769	1.15	0.706
H fixed	0.995	1.27	1.2	1.31	1.07	1.43	1.66	1.36	6.2
I fixed	1.16	0.853	0.778	0.671	0.331	0.321	0.242	0.49	0.308
K fixed	0.821	0.357	0.868	0.756	2.74	1.03	2.4	1.27	1.12
L fixed	1.12	0.862	0.825	0.661	0.699	0.393	0.297	0.587	0.458
M fixed	1.49	0.841	0.875	1.07	0.71	0.91	0.36	0.92	0.439
N fixed	1.42	1.01	1.03	1.28	1.12	1.64	0.784	0.925	0.607
P fixed	0.328	0.794	1.04	1.33	2.39	0.766	1.48	1.34	0.682
Q fixed	1.11	0.789	1.04	1.05	1.19	2.35	0.897	1.08	0.719
R fixed	0.717	0.357	0.617	0.741	1.42	1.26	4.37	1.78	1.43
V fixed	0.84	0.829	0.747	0.524	0.425	0.367	0.325	0.545	0.445
W fixed	1.23	0.807	1.03	0.887	0.746	0.899	0.691	1.08	1.04
Y fixed	1.18	1.02	0.874	0.996	0.779	0.782	0.734	0.966	0.776
pThr fixed	1.08	0.655	0.925	1.55	0.287	0.456	0.441	0.552	0.349
pTyr fixed	1.09	0.807	1.04	1.12	0.347	0.382	0.418	0.548	0.442

MAP3K7, construct: aa1-303, human (from UniProt O43318)
relative phosphorylation
Conditions	at +1	at +2	at +3	at +4	at -1	at -2	at -3	at -4	at -5
A fixed	0.455	0.709	0.902	0.855	0.708	0.979	1.18	0.95	1.05
D fixed	0.391	1.03	0.996	0.885	1.18	0.533	0.857	1.69	1.56
E fixed	0.668	0.547	0.878	0.898	0.687	0.863	0.662	1.33	1.17
F fixed	1.44	0.608	0.93	0.735	1.01	1.14	0.818	0.938	0.891
G fixed	0.565	0.809	1.39	1.18	0.528	0.592	0.714	1.14	1.04
H fixed	0.914	1.42	1.1	1.11	1.23	1.42	1.1	1.05	1.07
I fixed	1.41	0.623	0.714	0.921	0.888	1.2	1.14	0.872	0.781
K fixed	0.409	2.3	1.33	1.42	0.752	0.581	0.752	0.734	0.885
L fixed	2	0.608	0.821	0.949	1.57	1.01	1.13	0.834	0.77
M fixed	1.55	0.786	0.968	0.897	1.41	1.31	0.999	0.9	0.884
N fixed	2.36	1.44	1.07	0.959	1.13	0.633	0.649	0.962	0.987
P fixed	0.206	0.741	0.892	1.29	0.348	0.537	0.854	0.807	1.06
Q fixed	1.17	0.78	0.93	0.993	0.866	0.785	0.65	0.818	0.818
R fixed	0.597	2.39	1.33	1.29	1.02	1	1.54	0.795	0.994
V fixed	0.914	0.758	0.874	0.836	0.768	1.07	1	0.934	0.894
W fixed	0.963	0.646	0.969	0.923	1.2	1.31	1.37	1.14	1.07
Y fixed	0.979	0.804	0.903	0.866	1.7	2.04	1.58	1.11	1.08
pThr fixed	0.898	1.36	1.33	0.99	1.03	1.41	1.53	1.4	1.14
pTyr fixed	0.431	0.475	0.716	0.689	1.07	1.01	0.786	0.912	1.09

MAP3K11, construct: aa99-398, human (from UniProt Q16584)
relative phosphorylation
Conditions	at +1	at +2	at +3	at +4	at -1	at -2	at -3	at -4	at -5
A fixed	0.654	0.524	0.71	0.779	0.713	0.983	1.06	1.02	1.21
D fixed	0.261	0.298	0.538	0.592	1.06	1.07	1.34	1.66	1.78
E fixed	0.424	0.285	0.445	0.549	0.891	0.89	1.35	1.46	1.24
F fixed	1.15	0.42	1.21	0.746	0.792	1.12	0.841	0.799	0.716
G fixed	0.664	0.458	1.1	1.03	0.453	1.06	1.36	1.34	1.39
H fixed	1.36	1.53	1.17	1.07	1.52	0.919	1.24	1.03	1.14
I fixed	0.625	0.392	0.562	0.605	0.522	0.769	0.428	0.529	0.508
K fixed	1.79	3.9	2.18	3.13	1.3	0.55	0.933	0.901	1.2
L fixed	0.71	0.407	1	0.589	0.946	0.738	0.654	0.722	0.781
M fixed	1.35	0.49	0.743	0.656	1.28	1.16	0.835	0.749	0.634
N fixed	0.699	0.666	0.971	0.834	1.16	0.949	1.1	0.947	0.996
P fixed	0.268	0.352	0.641	1.58	0.914	2.31	1.64	1.63	1.4
Q fixed	1.33	0.705	0.753	0.876	0.901	0.679	0.948	0.89	0.865
R fixed	2.38	4.19	1.9	2.01	1.38	0.678	0.898	0.918	0.993
V fixed	0.903	0.367	0.756	0.647	0.771	0.779	0.581	0.559	0.903
W fixed	1.29	0.729	1.16	0.527	0.928	1.16	0.754	0.924	0.522
Y fixed	1.14	1.29	1.17	0.784	1.48	1.18	1.04	0.92	0.711
pThr fixed	0.895	0.476	0.69	0.685	0.686	1.02	1.18	1.38	1.21
pTyr fixed	0.498	0.528	0.608	0.454	1.08	0.972	1.27	1.06	1.08
